Consider 1 substance from article PMC8629192.

The target in the test is SARS-CoV-2 spike protein (Wuhan-Hu-1), recombinant full-length spike with C-terminal histidine (SARS-CoV-2) (UniProt P0DTC2). Kind of test: ELISA. (In general: ELISA stands for enzyme-linked immunosorbent assay.)

LRRC15-Fc, sequence (Q8TF66 22-538): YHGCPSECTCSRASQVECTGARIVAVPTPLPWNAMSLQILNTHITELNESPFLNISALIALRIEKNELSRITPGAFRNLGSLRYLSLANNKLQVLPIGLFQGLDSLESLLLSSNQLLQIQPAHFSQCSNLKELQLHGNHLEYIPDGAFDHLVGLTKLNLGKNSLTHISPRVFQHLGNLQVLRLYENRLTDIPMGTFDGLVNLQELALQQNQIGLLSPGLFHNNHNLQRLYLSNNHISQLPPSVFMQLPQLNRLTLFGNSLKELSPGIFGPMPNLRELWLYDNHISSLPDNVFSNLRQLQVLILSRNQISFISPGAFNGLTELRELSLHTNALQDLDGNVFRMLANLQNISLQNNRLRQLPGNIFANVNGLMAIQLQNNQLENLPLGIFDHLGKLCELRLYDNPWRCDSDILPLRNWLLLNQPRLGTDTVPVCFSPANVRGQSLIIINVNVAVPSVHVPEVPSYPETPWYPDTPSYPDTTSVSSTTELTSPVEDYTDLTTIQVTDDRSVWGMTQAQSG

For “LRRC15-Fc (from UniProt Q8TF66) (Fc fusion)”, the Kd (usually a measure of binding affinity in units of concentration) is 109 nM.
